Measured values as given in patent US5958748, “DNA coding for serine/threonine kinase” (dated 1999).

Target: fused protein of GAL4 DNA binding domain and mouse ATF4 leucine zipper domain (amino acids 298 to 349 in the … (mouse, UniProt P04386))
Assay: yeast two-hybrid, colony formation on histidine-, tryptophan-, leucine- medium
Method: The site to which ZIP-kinase and ATF4 bind was determined using yeast two-hybrid system. First, variants of mouse ZIP-kinase were prepared: 1) amino acids 278 to 448 of ZIP-kinase (ZIP-kinase 278–448); 2) leucine zipper domain of ZIP-kinase (amino acids 398 to 448) (ZIP-kinase LZ); and 3) a variant of ZIP-kinase in which valine and leucine in the leucine zipper domain were substituted with alanine (ZIP-kinase LA). Each of these variants was designed to produce a chimeric protein with GAL4 trans activating domain, and DNA coding for said chimeric protein was inserted into pACT2 and introduced into yeast strain Y190 together with pAS2-1-ATF4 LZ. The strain was cultivated on histidine+, tryptophan–, leucine–, and histidine–, tryptophan–, leucine– selective media.

- binding result: no binding
B1: ZIP-kinase LA (variant of mouse ZIP-kinase in which valine and leucine in the leucine zipper domain were substituted with alanine) as chimeric protein with … (enzyme)
chain: MSTFRQEDVEDHYEMGEELGSGQFAIVRKCQQKGTGMEYAAKFIKKRRLPSSRRGVSREEIEREVSILREIRHPNIITLHDVFENKTDVVLILELVSGGELFDFLAEKESLTEDEATQFLKQILDGVHYLHSKRIAHFDLKPENIMLLDKHAASPRIKLIDFGIAHRIEAGSEFKNIFGTPEFVAPEIVNYEPLGLEADMWSIGVITYILLSGASPFLGETKQETLTNISAVNYDFDEEYFSSTSELAKDFIRRLLVKDPKRRMTIAQSLEHSWIKVRRREDGARKPERRRLRAARLREYSLKSHSSMPRNTSYASFERFSRVLEDVAAAEQGLRELQRGRRQCRERVCALRAAAEQREARCRDGSAGLGRDLRRLRTELGRTEALRTRAQEEARAALLGAGGLKRRLCRLENRYDALAAQAAAEVQFARDLVRAAEQERLQAECGVR
